Measurements: the RNAGym collection of RNA variant scans (doi:10.7554/elife.80360)

B1: HDV Ribozyme (parent)
chain: GGCCGGCAUGGUCCCAGCCUCCUCGCUGGCGCCGGCUGGGCAACAUUCCGAGGGGACCGUCCCCUCGGUAAUGGCGAAUGGGACCCA

Variants of: B1
Test: self-cleavage, relative activity (ratio to wild type); higher = more cleavage; co-transcriptional

Row | Variant | self-cleavage
1 | C4A G68C | 0.115
2 | C4U G52U | 0.831
3 | C4U G52A | 0.443
4 | C4A G5A | 0.13
5 | C4U G53A | 0.665
6 | C4U G53C | 0.782
7 | C4U C18G | 0.095
8 | C4U C18A | 0
9 | C4A G82C | 0.0396
10 | C4G C84U | 0.249
11 | C4G C84G | 0
12 | C4G A8G | 0.346
13 | C4U G74C | 0.0791
14 | C4U G74A | 0.197
15 | C4G U60C | 0.0875
16 | C4G U60G | 0.213
17 | C4G U60A | 0.332
18 | C4U G54C | 0.795
19 | C4A G25C | 0.181
20 | C4U C58G | 0.615
21 | C4U G31A | 0.163
22 | C4U G31U | 0.0346
23 | C4U G31C | 0.0339
24 | C4U A43G | 0

Row | Variant | self-cleavage
25 | C4U A43U | 0.332
26 | C4G C13U | 0.369
27 | C4G C13A | 0.0277
28 | C4G C13G | 0
29 | C4U G28A | 0.0845
30 | C4U G28U | 0.0277
31 | C4U C44G | 0.214
32 | C4G G35C | 0.13
33 | C4G G35A | 0
34 | C4G G28A | 0
35 | C4G G28U | 0
36 | C4U C15U | 0.731
37 | C4U C15A | 0.302
38 | C4U U47C | 0.554
39 | C4U U47G | 0.88
40 | C4U C86A | 0.875
41 | C4U C86G | 0.831
42 | C4U G17A | 0.332
43 | C4U G17U | 0.136
44 | C4G C14G | 0
45 | C4G C14A | 0.0852
46 | C4G C14U | 0.462
47 | C4G G76C | 0.494
48 | C4G G76A | 0.343

Row | Variant | self-cleavage
49 | C4G A42G | 0
50 | C4U U9A | 0.739
51 | C4U U9C | 0.727
52 | C4U U9G | 0.782
53 | C4U U27C | 0.166
54 | C4U G34U | 0.424
55 | C4U G34C | 0.151
56 | C4G G10A | 0.105
57 | C4U G25A | 0.111
58 | C4U G67U | 0.855
59 | C4U G67A | 0.554
60 | C4U G67C | 0.739
61 | C4G A83U | 0.136
62 | C4G A83G | 0.192
63 | C4G A16G | 0.453
64 | C4U C13U | 0.516
65 | C4U A71C | 0.499
66 | C4U G80C | 0.157
67 | C4U G80U | 0.0683
68 | C4U G68U | 0.657
69 | C4A G73U | 0
70 | C4U C32G | 0
71 | C4A G55C | 0.31
72 | C4A G55A | 0.3

Row | Variant | self-cleavage
73 | C4G A78G | 0.0923
74 | C4U C61U | 0.717
75 | C4U C61A | 0.978
76 | C4A G53C | 0.344
77 | C4A G53U | 0.174
78 | C4A G53A | 0.201
79 | C4U C62U | 0.656
80 | C4U C62G | 0.151
81 | C4G A87C | 0.373
82 | C4G A87G | 0.0715
83 | C4G C24A | 0.102
84 | C4G C24G | 0.0426
85 | C4G G25C | 0
86 | C4G G25A | 0.0256
87 | C4A U9C | 0.268
88 | C4A G40A | 0.214
89 | C4A G40U | 0.199
90 | C4G G11C | 0
91 | C4G G11A | 0.104
92 | C4G G82U | 0.0421
93 | C4G U47C | 0.346
94 | C4G U23A | 0.47
95 | C4G C26A | 0.569
96 | C4G C26G | 0.306

Row | Variant | self-cleavage
97 | C4U A51C | 0.723
98 | C4U G35U | 0.162
99 | C4G C57A | 0.374
100 | C4G C57G | 0.489
101 | C4U A83G | 0.464
102 | C4G C19G | 0.086
103 | C4U C19U | 0.0665
104 | C4U C19G | 0.0268
105 | C4U G55A | 0.772
106 | C4U G55U | 0.639
107 | C4U G55C | 0.656
108 | C4G A45G | 0.201
109 | C4G A45U | 0.161
110 | C4A C58U | 0.424
111 | C4A C58G | 0.259
112 | C4U C48G | 0.554
113 | C4U C48A | 0.706
114 | C4G C75U | 0.0396
115 | C4U U79A | 0.755
116 | C4U G82U | 0.119
117 | C4U G82C | 0.0875
118 | C4U G82A | 0.0959
119 | C4G G73U | 0.086
120 | C4A C64U | 0.277

Row | Variant | self-cleavage
121 | C4G G29C | 0
122 | C4G A71G | 0.277
123 | C4G A71C | 0.192
124 | C4U U37G | 0
125 | C4A U79A | 0.0739
126 | C4U G6U | 0.219
127 | C4A G29A | 0.0244
128 | C4U C64G | 0.538
129 | C4G U72G | 0.0519
130 | C4G U72A | 0.0437
131 | C4G G68A | 0.309
132 | C4G U37A | 0.0462
133 | C4G U37G | 0.0489
134 | C4A C48G | 0.148
135 | C4G C58U | 0.404
136 | C4G C58G | 0.289
137 | C4G C30A | 0.0601
138 | C4A U12G | 0.0536
139 | C4A U12A | 0.0712
140 | C4A U12C | 0.095
141 | C4A C84A | 0.192
142 | C4A C84G | 0.138
143 | C4U G50A | 0.686
144 | C4U G50C | 0.917

Row | Variant | self-cleavage
145 | C4G U27A | 0.222
146 | C4G U27C | 0.0437
147 | C4G U27G | 0.268
148 | C4A U69G | 0.285
149 | C4A G6C | 0.0594
150 | C4U C49G | 0.604
151 | C4U C49A | 0.332
152 | C4U C49U | 0.789
153 | C4U G76A | 0.443
154 | C4U C57G | 0.629
155 | C4U C57U | 0.656
156 | C4G C85A | 0.435
157 | C4G C85U | 0.306
158 | C4A G17A | 0.0396
159 | C4A G17U | 0.0292
160 | C4G C18U | 0.0282
161 | C4G C86A | 0.554
162 | C4G C86G | 0.249
163 | C4G U9C | 0.19
164 | C4G U9G | 0.293
165 | C4G G74U | 0.111
166 | C4G G74C | 0.0386
167 | C4U C30U | 0.332
